Test results: article PMC4239610, “A Peptide Derived from G0/G1 Switch Gene 2 Acts as Noncompetitive Inhibitor of Adipose Triglyceride Lipase” (The Journal of Biological Chemistry, 2014)

What was measured:
mATGL [1] = test: TG hydrolase activity, E. coli expressed mATGL, CGI-58 activated, hG0S2 truncations (Fig. 1C-E); assay type: biochemical, mouse; conditions: mATGL E. coli extract (50 μg), 2.5 μg purified mCGI-58, 30 μg lysate of E. coli expressing hG0S2 variant, [3H]triolein, triplicates
Protocol: Protein concentrations were determined as described below.
FIGURE 1. Minimal sequence requirements of human G0S2 for ATGL inhibition. A, graphical representation of full-length and shortened versions of hG0S2, those capable of inhibiting ATGL activity are illustrated in black. The largely hydrophobic sequence stretch from Val-28 to Met-42 is depicted in light gray. B–E, activity assays were performed in the presence of CGI-58 as indicated by an asterisk (ATGL*). G0S2 and variants thereof were expressed in E. coli and added as cell lysates. Overexpressed mATGL from E. coli lysates was used for all assays with the exception of the assay shown in B. B, inhibition of TG hydrolase activity of mATGL containing COS-7 cell extracts by WT and C-terminally truncated hG0S2 variants. C, inhibition of TG hydrolase activity of mATGL by WT and C-terminally truncated hG0S2 variants. D, inhibition of TG hydrolase activity of mATGL by WT hG0S2 and variants with N-terminal deletions. E, effect of different N- and C-terminal truncations in hG0S2 on mATGL activity. The fusion tag smt3 is shown as control.

ATGL [2] = conditions: cited from earlier work
Source text: Activation of ATGL by CGI-58 is considered as fasting response upon β-adrenergic stimulation and phosphorylation of PKA ([12]). Recent studies have strengthened the role of G0S2 as the so-called master regulator of basal and stimulated lipolysis ([27]). mRNA levels of G0S2 respond strongly to hormonal stimuli, yet the dose-dependent inhibition of ATGL by G0S2 itself is reported to be independent of phosphorylation events ([18], [20], [21], [28], [29]). Thus, regulation of the expression levels of G0S2, and consequently the protein concentration, resembles a potent mean to regulate lipid mobili ... || Structural knowledge on ATGL is very limited. It is predicted to exert lipolytic activity via a catalytic dyad that resides in the patatin domain within the N-terminal half of the lipase ([7], [50]). […] In contrast, Atglis ...

mATGL [3] = target: mATGL (Mus musculus, UniProt Q8BJ56); test: TG hydrolase activity of CGI-58-stimulated mATGL (mATGL*) expressed in E. coli; conditions: read-out: half-maximal inhibitory concentration (IC50), CGI-58-stimulated ATGL; mATGL from E. coli (25 μg lysate protein) with 2.5 μg mCGI-58; [3H]triolein substrate; triplicates; Fig. 2E (hGW2052), 2F (WT hG0S2)
Protocol: The peptides were dissolved in 100% DMSO, and concentrations were determined via the absorbance at 280 nm. The final DMSO concentration in the activity assay was ≤1%. The control peptide was prepared the same way.
TG hydrolase activity assay was performed as described ([45]). To screen for the inhibitory capacity of various hG0S2 truncations, 30 μg of protein of cell lysates were incubated with the [^3H]triolein substrate together with 50 μg of cell extract of Strep-mATGL (or COS-7-mATGL) and 2.5 μg of purified mCGI-58. As a control, lysates of the His6-Smt tag were incubated under the same conditions. […] TG substrate was prepared with 1.67 mM triolein, 10 μCi/ml [9,10-^3H]triolein (PerkinElmer Life Sciences), and 190 μM phosphatidylcholine/phosphatidylinositol (3:1) (Sigma) and diluted to the respective concentrations after sonication. Assays with CGI-58 co-activated ATGL were performed on a smaller scale. […] Lysates using LacZ-expressing cells were used as controls. The reaction was terminated by adding 650 μl of methanol/chloroform/heptane (10:9:7) and 200 μl of 100 mM potassium carbonate buffer, pH 10.5 (adjusted with boric acid). The radioactivity in 200 μl of the upper phase (450 μl in total) was determined by liquid scintillation counting.

ATGL [4] = conditions: cited from earlier work; remark: listed apart in the source
Source text: Extensive research on the physiological role of ATGL has identified complex regulatory mechanisms for its activity on the transcriptional and post-translational level ([12], [13]). Direct protein-protein interaction of ATGL with the protein comparative gene identification 58 (CGI-58) increases ATGL activity up to 20-fold ([14]). Inhibition of ATGL due to direct interaction with the small, 103-amino acid protein G0/G1 switch gene 2 (G0S2) was discovered in 2010 and confirmed using human and murine proteins ([15][–][21]). The highest G0S2 expression is found in adipose tissues, but it is also pr ... || Activation of ATGL by CGI-58 is considered as fasting response upon β-adrenergic stimulation and phosphorylation of PKA ([12]). Recent studies have strengthened the role of G0S2 as the so-called master regulator of basal and stimulated lipolysis ([27]). mRNA levels of G0S2 respond strongly to hormonal stimuli, yet the dose-dependent inhibition of ATGL by G0S2 itself is reported to be independent of phosphorylation events ([18], [20], [21], [28], [29]). Thus, regulation of the expression levels of G0S2, and consequently the protein concentration, resembles a potent mean to regulate lipid mobili ... || Next, we investigated the specificity of the peptide hGW2052. ATGL and HSL together account for more than 95% of intracellular TG hydrolase activity in white adipose tissue (WAT) ([48]). […]

mATGL (Mus musculus, UniProt Q8BJ56), sequence (Q8BJ56 whole entry): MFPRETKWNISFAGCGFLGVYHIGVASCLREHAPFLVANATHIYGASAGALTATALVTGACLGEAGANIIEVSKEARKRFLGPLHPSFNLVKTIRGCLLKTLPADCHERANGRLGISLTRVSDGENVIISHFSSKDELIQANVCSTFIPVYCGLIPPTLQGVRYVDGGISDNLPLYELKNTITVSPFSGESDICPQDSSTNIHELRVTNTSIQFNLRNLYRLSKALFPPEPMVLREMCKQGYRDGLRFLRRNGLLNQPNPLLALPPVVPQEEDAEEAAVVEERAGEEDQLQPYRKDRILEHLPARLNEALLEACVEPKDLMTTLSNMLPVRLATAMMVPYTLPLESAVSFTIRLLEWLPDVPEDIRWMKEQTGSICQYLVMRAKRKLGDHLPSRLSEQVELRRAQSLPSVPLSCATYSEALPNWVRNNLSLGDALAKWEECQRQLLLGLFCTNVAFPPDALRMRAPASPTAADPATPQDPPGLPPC
mATGL (Mus musculus, UniProt Q8BJ56), sequence (Q9DBL9 whole entry partner): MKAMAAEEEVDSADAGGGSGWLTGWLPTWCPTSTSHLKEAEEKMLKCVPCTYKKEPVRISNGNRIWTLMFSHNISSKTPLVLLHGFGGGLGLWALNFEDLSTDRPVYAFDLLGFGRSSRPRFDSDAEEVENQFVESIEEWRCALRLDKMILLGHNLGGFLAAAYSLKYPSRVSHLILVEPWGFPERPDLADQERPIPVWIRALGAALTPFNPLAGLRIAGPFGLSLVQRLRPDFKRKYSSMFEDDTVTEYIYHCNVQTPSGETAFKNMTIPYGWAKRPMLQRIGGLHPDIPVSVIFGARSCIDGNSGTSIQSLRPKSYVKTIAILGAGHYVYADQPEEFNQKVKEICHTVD

B1: hG0S2_27–103: N-terminally truncated hG0S2 until residue Tyr-27 (protein, UniProt P27469 27-103, looked up, fragment)
chain: YVLGSVLALFGVVLGLMETVCSPFTAARRLRDQEAAVAELQAALERQALQKQALQEKGKQQDTVLGGRALSNRQHAS
inhibition of TG hydrolase activity (result in words) (mATGL [1]): fully inhibit ATGL activity | inhibition of TG hydrolase activity (result in words) (mATGL [1]; listed as Tyr-27–Ser-103): fully able to inhibit ATGL

B2: G0S2 truncated after residue Gly-30: Truncation of G0S2 after residue Gly-30 (N-terminal) (protein, UniProt P27469 30-103, looked up, fragment)
chain: GSVLALFGVVLGLMETVCSPFTAARRLRDQEAAVAELQAALERQALQKQALQEKGKQQDTVLGGRALSNRQHAS
inhibition of TG hydrolase activity (result in words) (mATGL [1]): complete loss of the capacity to inhibit ATGL

B3: hG0S2: full-length human G0S2, 103-amino acid protein, expressed in E. coli (protein)
chain: METVQELIPLAKEMMAQKRKGKMVKLYVLGSVLALFGVVLGLMETVCSPFTAARRLRDQEAAVAELQAALERQALQKQALQEKGKQQDTVLGGRALSNRQHAS
modifications: left off: His6, N-terminal, cleaved | Smt, N-terminal, cleaved
notes: full-length human G0S2, 103-amino acid protein, expressed in E. coli
site of interaction with ATGL (ATGL [2]; ref [15]): interacts with the N-terminal catalytic domain of ATGL | IC50 (mATGL [3]): 19 nM

B4: CGI-58: comparative gene identification 58, protein co-activator of ATGL (protein, UniProt Q8WTS1 2-349, looked up)
1-acylglycerol-3-phosphate …: AAEEEEVDSADTGERSGWLTGWLPTWCPTSISHLKEAEEKMLKCVPCTYKKEPVRISNGNKIWTLKFSHNISNKTPLVLLHGFGGGLGLWALNFGDLCTNRPVYAFDLLGFGRSSRPRFDSDAEEVENQFVESIEEWRCALGLDKMILLGHNLGGFLAAAYSLKYPSRVNHLILVEPWGFPERPDLADQDRPIPVWIRALGAALTPFNPLAGLRIAGPFGLSLVQRLRPDFKRKYSSMFEDDTVTEYIYHCNVQTPSGETAFKNMTIPYGWAKRPMLQRIGKMHPDIPVSVIFGARSCIDGNSGTSIQSLRPHSYVKTIAILGAGHYVYADQPEEFNQKVKEICDTVD
increase of ATGL activity (ATGL [4]; direct protein-protein interaction with ATGL, ref [14]): up to 20 fold

B5: G0S2 Met-1–Gln-73: truncated variant of G0S2 encompassing the residues Met-1–Gln-73 (protein, UniProt P27469 1-73, looked up, fragment)
chain: METVQELIPLAKEMMAQKRKGKMVKLYVLGSVLALFGVVLGLMETVCSPFTAARRLRDQEAAVAELQAALERQ
inhibition of ATGL (in words) (ATGL [4]; truncated/deleted G0S2 variants, ref [20]): inhibits the enzyme | interaction with ATGL (ATGL [2]; ref [20]): interacts with ATGL
